Results published in paper doi:10.1101/2020.02.14.947937 (bioRxiv, 2020).

Molecular target: the molecule itself
Experiment: cryo-EM structure

B1: mouse homomeric 5-HT3A receptor (receptor, UniProt P23979 24-489, looked up)
chain: SRRRATQARDTTQPALLRLSDHLLANYKKGVRPVRDWRKPTTVSIDVIMYAILNVDEKNQVLTTYIWYRQYWTDEFLQWTPEDFDNVTKLSIPTDSIWVPDILINEFVDVGKSPNIPYVYVHHRGEVQNYKPLQLVTACSLDIYNFPFDVQNCSLTFTSWLHTIQDINITLWRSPEEVRSDKSIFINQGEWELLEVFPQFKEFSIDISNSYAEMKFYVIIRRRPLFYAVSLLLPSIFLMVVDIVGFCLPPDSGERVSFKITLLLGYSVFLIIVSDTLPATAIGTPLIGVYFVVCMALLVISLAETIFIVRLVHKQDLQRPVPDWLRHLVLDRIAWILCLGEQPMAHRPPATFQANKTDDCSGSDLLPAMGNHCSHVGGPQDLEKTPRGRGSPLPPPREASLAVRGLLQELSSIRHFLEKRDEMREVARDWLRVGYVLDRLLFRIYLLAVLAYSITLVTLWSIWHYS
modifications: N-linked carbohydrates
stoichiometry N: 5
